Measurements as given in patent US20220305136A1 (ASCENDIS PHARMA ONCOLOGY DIVISION A S, published 2022).

Target: T1, human CTLA-4 (AA Ala37-Ser160)-Fc Tag fusion protein (human, UniProt P16410 37-160)
T1 construct: range 37-160; Bought reagent, coated on ELISA wells as the capture protein; also called AcroBiosystem catalog no; CT4-H5255; not shown: Fc Tag of the bought fusion protein
T1 sequence (looked up): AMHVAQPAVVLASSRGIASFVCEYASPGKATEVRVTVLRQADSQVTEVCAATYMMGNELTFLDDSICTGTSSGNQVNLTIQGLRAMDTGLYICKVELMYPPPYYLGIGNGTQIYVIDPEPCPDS
Experiment: in-house sandwich ELISA; CTLA-4-Fc coated on plate captures HHC^MET from rat plasma; read-out with rabbit anti-camelid VHH antibody-HRP
Description: These solutions were used for the generation of a calibration curve.

B1: HHC^MET (VHH)
chain: EVQLVESGGGLVQAGGSLRLSCAASGGTFSFYGMGWFRQAPGKEQEFVADIRTSAGRTYYADSVKGRFTISRDNAKNTVYLQMNSLKPEDTAVYYCAAEMSGISGWDYWGQGTQVTVSSGGGGSGGGSEVQLVESGGGLVQAGGSLRLSCAASGGTFSFYGMGWFRQAPGKEQEFVADIRTSAGRTYYADSVKGRFTISRDNAKNTVYLQMNSLKPEDTAVYYCAAEMSGISGWDYWGQGTQVTVSS
notes: Custom made, expressed in E. coli; The assay measured free HHC^MET in rat plasma, either spiked in as standard or released from the hydrogel prodrug; also called HHC^MET-NH2
- binding result: binds
